Values of other authors, collected in paper PMC5081098.

Target: CCL21 (Homo sapiens) (UniProt O00585)
Sequence of UniProt O00585 (O00585 24-134): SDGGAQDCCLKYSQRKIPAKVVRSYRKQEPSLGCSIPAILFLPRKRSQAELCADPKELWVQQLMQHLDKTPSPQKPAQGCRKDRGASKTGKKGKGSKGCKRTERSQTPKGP

podoplanin (from UniProt Q86YL7)
Kd: 70 nM
